Assay results from article PMC10917784 (Nature Communications, 2024).

Tests used:
Conditions in all cases: one partner purified
CD38 on tumor cell lines [1] = molecular target: T1, CD38 on tumor cell lines (Homo sapiens, UniProt P28907); experiment: flow cytometry on cells; NCI-H929 cells, increasing antibody concentrations, 4 °C, 30 min, labelled anti-human IgG secondary; Kd from fit of RFI
T1 construct: CD38 on the surface of CD38high (Daudi, Raji) and CD38low (NCI-H929, KMS-12-BM) cell lines; source: endogenous, on Daudi, Raji, NCI-H929 and KMS-12-BM cells

CD38 on tumor cell lines [2] = molecular target: T1, CD38 on tumor cell lines; experiment: flow cytometry on cells; Daudi cells, increasing antibody concentrations, 4 °C, 30 min, labelled anti-human IgG secondary; Kd from fit of RFI
CD38 on tumor cell lines [3] = molecular target: T1, CD38 on tumor cell lines; experiment: flow cytometry on cells; Raji cells, increasing antibody concentrations, 4 °C, 30 min, labelled anti-human IgG secondary; Kd from fit of RFI
CD38 on tumor cell lines [4] = molecular target: T1, CD38 on tumor cell lines; experiment: flow cytometry on cells; KMS-12-BM cells, increasing antibody concentrations, 4 °C, 30 min, labelled anti-human IgG secondary; Kd from fit of RFI

- Kd (CD38 on tumor cell lines [1]): 0.506 nM
- Kd (CD38 on tumor cell lines [2]): 0.258 nM
- Kd (CD38 on tumor cell lines [3]): 0.33 nM
- Kd (CD38 on tumor cell lines [4]): 0.138 nM
B1: daratumumab (antibody, V domains shown)
VH: EVQLLESGGGLVQPGGSLRLSCAVSGFTFNSFAMSWVRQAPGKGLEWVSAISGSGGGTYYADSVKGRFTISRDNSKNTLYLQMNSLRAEDTAVYFCAKDKILWFGEPVFDYWGQGTLVTVSS
VL: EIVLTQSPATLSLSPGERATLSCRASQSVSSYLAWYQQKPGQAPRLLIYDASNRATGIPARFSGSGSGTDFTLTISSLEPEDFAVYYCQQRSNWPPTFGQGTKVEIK
notes: whole antibody in the assay; the PDB entry holds only part of it; also called Darzalex; source: bought: Janssen Biotech Inc
